# Experimental data: patent US20200199244A1 (published 2020)
# Positions count from the first letter of the chain named. “And” between values parts separate entries of the source, which are not always exact repeats. Equal entries are not always repeated.
# T1: human CD40 (H76R, W109L, L121P) Fc fusion (human)
# T1 construct: Same construct as wt-hCD40 with H76R, W109L and L121P; also called hCD40-M5; hCD40-M5 (H76R, W109L, L121P); not shown: human IgG1 Fc
# T1 chain: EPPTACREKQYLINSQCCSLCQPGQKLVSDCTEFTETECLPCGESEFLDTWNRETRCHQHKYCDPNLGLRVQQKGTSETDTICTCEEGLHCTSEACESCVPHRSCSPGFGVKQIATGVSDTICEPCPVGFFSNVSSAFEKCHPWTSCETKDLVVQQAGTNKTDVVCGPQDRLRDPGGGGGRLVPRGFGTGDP
# T2: wild type cynomolgus monkey CD40 Fc fusion (cynomolgus monkey (Macaca …))
# T2 construct: also called wt-cCD40; wt-cyno-CD40; not shown: human IgG1 Fc
# T2 chain: T1 chain with A95S, S106L, H142R, L172Q
# B1: BMS3h-217-16 (other)
# VL: DIQMTQSPSSLSASVGDRVTITCRASHFIGTLLSWYQQKPRKAPKLLITYGSLLQSGVPSRFSGSGSGTDFTLTISSLQPEDFATYYCGQGVLWPPTFGQGTKVEIKR
# notes: Anti-human CD40 domain antibody (dAb), single V kappa domain
# B2: BMS3h-217-5 (other)
# VL: B1 VL with S10F, G30A, R41G
# notes: as for B1
# B3: BMS3h-217-23 (other)
# VL: B1 VL with T31S, Q38V, R41G, P96A, K103T
# notes: as for B1
# B4: DMS0659 DOM7h-11-87-TVAAPS-BMS3h-56-201 (bispecific antibody)
# chain: DIQMTQSPSSLSASVGDRVTITCRASRPIGTMLSWYQQKPGKAPKLLILAFSRLQSGVPSRFSGSGSGTDFTLTISSLQPEDFATYYCAQAGTHHTTFGQGTKVEIKRTVAAPSEVQLLESGGGLVQPGGSLRLSCAASGFTFRDYEMWWVRQAPGKGLERVSAINPQGTRTYYADSVKGRFTISRDNSKNTLYLQMNSLRAEDTAVYYCAKLPFYFQEWGQGTLVTVSS
# notes: AlbudAb inline fusion (ILF): an anti-CD40 dAb and an anti-serum-albumin dAb joined by a linker in one polypeptide
# B5: DMS0664 DOM7h-11-69-TVAAPS-BMS3h-56-201 (bispecific antibody)
# chain: B4 chain with T93V, H95P
# notes: as for B4
# B6: DMS0663 DOM7h-11-86-TVAAPS-BMS3h-56-201 (bispecific antibody)
# chain: B4 chain with F83V, H95P
# notes: as for B4
# B7: DMS0662 DOM7h-11-90-TVAAPS-BMS3h-56-201 (bispecific antibody)
# chain: B4 chain with S77N, H95P
# notes: as for B4
# B8: BMS3h-197 (other)
# VH: EVQLLESGGGLVQPGGSLRLSCAASGFTFGSAAMDWVRQAPGKGLEWVSSINDMGSNTYYADSVKGRFTISRDNSKNTLYLQMNSLRAEDTAVYYCAKQGGRFDYWGQGTLVTVSS
# notes: dAb, single VH
# B9: DMS0654 BMS3h-56-201-AST-DOM7h-11-3 (bispecific antibody)
# chain: EVQLLESGGGLVQPGGSLRLSCAASGFTFRDYEMWWVRQAPGKGLERVSAINPQGTRTYYADSVKGRFTISRDNSKNTLYLQMNSLRAEDTAVYYCAKLPFYFQEWGQGTLVTVSSASTDIQMTQSPSSLSASVGDRVTITCRASRPIGTTLSWYQQKPGKAPKLLILWNSRLQSGVPSRFSGSGSGTDFTLTISSLQPEDFATYYCAQAGTHPTTFGQGTKVEIKR
# notes: as for B4
# B10: DMS0656 BMS3h-56-258-AST-DOM7h-11-3 (bispecific antibody)
# chain: B9 chain with Q104H
# notes: as for B4
# B11: DMS0657 BMS3h-56-258-AST-DOM7h-11-87 (bispecific antibody)
# chain: B9 chain with Q104H, T151M, W169A, N170F, P214H
# notes: as for B4
# B12: DMS0655 BMS3h-56-201-AST-DOM7h-11-87 (bispecific antibody)
# chain: B9 chain with T151M, W169A, N170F, P214H
# notes: as for B4
# B13: DMS0658 DOM7h-11-3-TVAAPS-BMS3h-56-201 (bispecific antibody)
# chain: B4 chain with M32T, A50W, F51N, H95P
# notes: as for B4
# B14: DMS0661 DOM7h-11-87-TVAAPS-BMS3h-56-258 (bispecific antibody)
# chain: B4 chain with Q218H
# notes: as for B4
# B15: DMS0660 DOM7h-11-3-TVAAPS-BMS3h-56-258 (bispecific antibody)
# chain: B4 chain with M32T, A50W, F51N, H95P, Q218H
# notes: as for B4
# Molecular target: T3, human CD40 (W109R) Fc fusion (Chimpanzee CD40) (human, UniProt P25942 21-193)
# T3 construct: Same construct as wt-hCD40 with W109R (the residue of chimpanzee CD40); also called hCD40-M3; hCD40 M3 (W109R); not shown: human IgG1 Fc
# Assay: SPR, ProteOn XPR36; CD40-Fc captured, dAb analyte; 1:1 fit;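 further: CD40-Fc captured on anti-human IgG(Fc) surface of a GLC chip, buffer pH 7.1, sensorgrams double-referenced against surfaces without CD40-Fc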
# Method: (§1) Assays were performed on a BioRad ProteOn XPR36 SPR instrument. The SPR surfaces were prepared by immobilizing 8 μg/ml anti-human IgG(Fc) antibody (Biacore/GE Healthcare) in 10 mM sodium acetate pH 4.5 on a BioRad GLC sensor chip using standard ethyl(dimethylaminopropyl) carbodiimide (EDC)/N-hydroxysuccinimide (NHS) chemistry, with ethanolamine blocking. The running buffer for immobilization and kinetic binding analysis was 10 mM sodium phosphate, 130 mM sodium chloride, 0.05% tween 20, pH 7.1. CD40-Fc fusion proteins at concentrations of 20 μg/ml were captured in the vertical orientation on these surfaces via the Fc tail, and reference surfaces lacking CD40-Fc proteins were used for reference subtraction. […] The surfaces were regenerated in both horizontal and vertical orientations with 30 s pulses of 3 M MgCl₂ followed by running buffer at 60 μl/min. Sensogram data was double-referenced and then fitted to a 1:1 Langmuir model using BioRad ProteOn Manager V.2.1.0.38 software, to determine the association rate constant (ka), the dissociation rate constant (kd), and the equilibrium dissociation constant (KD).
Kd [nM],koff [s⁻¹],kon [M⁻¹ s⁻¹],Binder
0.27,0.00104,3.78e+06,B1
0.72,0.00196,2.73e+06,B2
1.22,0.00186,1.53e+06,B3

# Molecular target: T4, human CD40 (W109L) Fc fusion (human, UniProt P25942 21-193)
# T4 construct: Same construct as wt-hCD40 with W109L; also called hCD40-M2; hCD40 M2 (W109L); not shown: human IgG1 Fc
# Assay: as above
Kd [nM],koff [s⁻¹],kon [M⁻¹ s⁻¹],Binder
0.41,0.00167,4.06e+06,B1
0.99,0.00251,2.55e+06,B2
1.95,0.00291,1.49e+06,B3

# Molecular target: T5, human CD40 (W109L, L121P) Fc fusion (human, UniProt P25942 21-193)
# T5 construct: Same construct as wt-hCD40 with W109L and L121P; also called hCD40-M4; hCD40 M4 (W109L, L121P); not shown: human IgG1 Fc
# Assay: as above
Kd [nM],koff [s⁻¹],kon [M⁻¹ s⁻¹],Binder
0.35,0.00152,4.39e+06,B1
0.93,0.00259,2.78e+06,B2
1.61,0.00268,1.67e+06,B3

# Molecular target: T1, human CD40 (H76R, W109L, L121P) Fc …
# Assay: as above
# Method: as §1
Kd [nM],koff [s⁻¹],kon [M⁻¹ s⁻¹],Binder
0.47,0.0017,3.65e+06,B1
0.99,0.00242,2.44e+06,B2
2.21,0.00287,1.3e+06,B3

# Molecular target: T2, wild type cynomolgus monkey CD40 Fc …
# Assay: as above
# Method: as §1
Kd [nM],koff [s⁻¹],kon [M⁻¹ s⁻¹],Binder
0.43,0.00147,3.44e+06,B1
0.86,0.00212,2.46e+06,B2
1.9,0.00235,1.24e+06,B3

# Molecular target: T6, human CD40 (H76R) Fc fusion (human, UniProt P25942 21-193)
# T6 construct: also called hCD40-M1; hCD40 M1 (H76R); not shown: human IgG1 Fc
# Assay: as above
Kd [nM],koff [s⁻¹],kon [M⁻¹ s⁻¹],Binder
0.35,0.00168,4.83e+06,B1
0.94,0.00299,3.17e+06,B2
1.59,0.00262,1.64e+06,B3

# Molecular target: T7, wild type human CD40 Fc fusion (human, UniProt P25942 21-193)
# T7 construct: also called wt-hCD40; not shown: human IgG1 Fc
# Assay: as above
Kd [nM],koff [s⁻¹],kon [M⁻¹ s⁻¹],Binder
0.22,0.000991,4.47e+06,B1
0.47,0.00127,2.71e+06,B2
0.78,0.00127,1.64e+06,B3

# Molecular target: T8, cynomolgus serum albumin (cynomolgus, UniProt A2V9Z4 25-608)
# T8 construct: Amine-coupled to a CM5 BIAcore chip; also called CSA; Cyno Serum Albumin
# T8 sequence (A2V9Z4 25-608 limits assumed): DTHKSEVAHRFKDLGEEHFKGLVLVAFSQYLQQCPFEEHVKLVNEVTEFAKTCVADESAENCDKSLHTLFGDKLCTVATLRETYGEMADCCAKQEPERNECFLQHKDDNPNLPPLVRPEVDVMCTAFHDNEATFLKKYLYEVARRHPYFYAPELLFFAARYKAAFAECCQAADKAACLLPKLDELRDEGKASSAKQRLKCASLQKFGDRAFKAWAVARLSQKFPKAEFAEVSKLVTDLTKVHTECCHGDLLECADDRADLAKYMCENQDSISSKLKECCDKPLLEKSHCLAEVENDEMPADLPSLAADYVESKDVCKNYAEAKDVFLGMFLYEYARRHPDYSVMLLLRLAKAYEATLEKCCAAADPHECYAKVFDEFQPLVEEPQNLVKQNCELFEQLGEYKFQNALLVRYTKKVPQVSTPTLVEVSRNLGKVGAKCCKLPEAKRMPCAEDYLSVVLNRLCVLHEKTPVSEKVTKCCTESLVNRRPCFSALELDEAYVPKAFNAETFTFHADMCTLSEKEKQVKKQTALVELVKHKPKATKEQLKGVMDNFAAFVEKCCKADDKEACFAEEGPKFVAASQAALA
# Assay: SPR (BIAcore 3000), CSA amine-coupled on CM5 chip, ILF as analyte, 1:1 Langmuir fit, 25 C
# From the text: (§2) A BIAcore™ 3000 instrument (GE Healthcare) was used to analyze the binding kinetics of anti-CD40-AlbudAb ILFs to human and cynomolgus serum albumin. Approximately 400 response units (RU) of human serum albumin (HSA) or cynomolgus serum albumin (CSA) were immobilized on a flow-cell of a CM5 BIAcore™ chip using an Amine Coupling Kit (GE Healthcare). A second flow cell without any ligand immobilized served as a reference flow-cell for inline referencing. An appropriate doubling dilution series of each dAb to be analyzed was prepared in HBS-EP buffer (0.01 M HEPES pH 7.4 with 0.15 M NaCl, 3 mM EDTA and 0.005% v/v Surfactant P20, GE Healthcare). Two hundred microlitres of each ILF were injected in duplicate using the instrument's KINJECT function. The injections were made across the serum albumin-immobilized and reference flow-cells in series, with inline subtraction of the signal from the reference cell. The experiment was performed at 25° C. and a flow rate of 40 μl/min of HBS-EP. After each injection had been completed, the dAb was allowed to dissociate from the ligand in buffer for 120 s before regeneration with a 10 μl injection of 10 mM glycine pH 2.0. A reference injection of HBS-EP buffer blank (containing no analyte) was also injected under the same conditions to serve as a second reference for subtraction from each analyte trace. BIAevaluation 4.1 software (GE Healthcare) was used to subtract both the reference flow-cell trace and the buffer blank trace from each analyte trace.
# (§3) The same software was used to perform a simultaneous, global fit of a 1:1 (Langmuir) kinetic model to the association and dissociation phases of the analyte dilution series traces. This model yielded association and dissociation rate constants (kₐ and kd, respectively) and the equilibrium dissociation constant (KD) of the interaction.
koff,Kd,kon,Binder
0.00237 s⁻¹ and 0.00337 s⁻¹ and 0.0024 s⁻¹,,,B4
0.00273 s⁻¹ and 0.00272 s⁻¹,1.09 nM and 2.97 nM,2.51e+06 M⁻¹ s⁻¹ and 920000 M⁻¹ s⁻¹,B5
0.00281 s⁻¹ and 0.00296 s⁻¹,2.38 nM and 2.52 nM,1.18e+06 M⁻¹ s⁻¹,B6
0.00252 s⁻¹ and 0.00266 s⁻¹,2.5 nM and 2.42 nM,1.01e+06 M⁻¹ s⁻¹ and 1.1e+06 M⁻¹ s⁻¹,B7

# Molecular target: T9, human CD40 (BMS, CY24FEB06-01) (human, UniProt P25942 21-193)
# T9 construct: Soluble reagent of the bead and ELISA RBA; It is detected with an anti-human IgG (Fc) mAb, so it may be a CD40-Ig fusion
# Assay: bead RBA, competition with IZ-CD40L
row,EC50 [nM],Binder
1,30,B8

# Molecular target: T10, human CD40 (human, UniProt P25942 21-277)
# Assay: cell-based or functional assay
"ICAM-1 Cell Assay EC50 (nM), 10% bovine serum [nM]","ICAM-1 Cell Assay EC50 (nM), 10% human serum [nM]",Binder
16.5,> 1000,B5
21.4,> 1000,B6
33.5,> 1000,B7

# Molecular target: T7, wild type human CD40 Fc fusion
# Assay: SPR, ProteOn XPR36; CD40-Fc captured, dAb analyte; 1:1 fit; repeat
# Method: as §1
Kd [nM],koff [s⁻¹],kon [M⁻¹ s⁻¹],Binder
0.26,0.000847,3.3e+06,B1
0.48,0.000981,2.03e+06,B2
1.52,0.00163,1.07e+06,B3

# Molecular target: T10, human CD40
# Assay: CHO-CD40 cell RBA: competition with biotinylated human IZ-CD40L for human CD40 on CHO cells, fluorescence (FMAT); 0.1% BSA
row,EC50 [nM],Binder
1,15,B9
2,11.8,B10
3,6.8,B11
4,6.3,B12
5,7.2,B4
6,12.2,B13
7,4.1,B14
8,21.8,B15

# Molecular target: T11, human serum albumin (human, UniProt P02768 25-609)
# T11 construct: Amine-coupled to a CM5 BIAcore chip; also called HSA
# T11 sequence (P02768 25-609 limits assumed): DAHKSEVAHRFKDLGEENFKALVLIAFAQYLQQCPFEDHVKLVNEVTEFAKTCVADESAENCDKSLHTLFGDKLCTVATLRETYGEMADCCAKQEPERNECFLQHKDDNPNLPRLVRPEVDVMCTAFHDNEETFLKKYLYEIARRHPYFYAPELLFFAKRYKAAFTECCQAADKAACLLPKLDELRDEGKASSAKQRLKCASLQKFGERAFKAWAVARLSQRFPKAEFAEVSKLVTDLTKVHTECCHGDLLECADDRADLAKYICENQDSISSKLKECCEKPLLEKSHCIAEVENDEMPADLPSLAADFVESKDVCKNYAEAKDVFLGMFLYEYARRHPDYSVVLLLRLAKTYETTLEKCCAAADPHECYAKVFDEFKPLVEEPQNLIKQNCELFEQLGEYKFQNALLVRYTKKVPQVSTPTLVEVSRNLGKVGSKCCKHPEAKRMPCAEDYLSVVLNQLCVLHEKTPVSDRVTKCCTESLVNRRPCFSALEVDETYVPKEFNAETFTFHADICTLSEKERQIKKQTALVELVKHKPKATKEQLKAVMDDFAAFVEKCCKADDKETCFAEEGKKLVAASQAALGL
# Assay: SPR (BIAcore 3000), HSA amine-coupled on CM5 chip, ILF as analyte, 1:1 Langmuir fit, 25 C
# From the text: as §2, §3
koff,Kd,kon,Binder
0.00117 s⁻¹ and 0.00169 s⁻¹ and 0.0012 s⁻¹,,,B4
0.00142 s⁻¹ and 0.00149 s⁻¹,0.57 nM and 1.59 nM,2.5e+06 M⁻¹ s⁻¹ and 930000 M⁻¹ s⁻¹,B5
0.0014 s⁻¹ and 0.0016 s⁻¹,1.12 nM and 1.21 nM,1.25e+06 M⁻¹ s⁻¹ and 1.32e+06 M⁻¹ s⁻¹,B6
0.00133 s⁻¹ and 0.00147 s⁻¹,1.21 nM and 1.23 nM,1.1e+06 M⁻¹ s⁻¹ and 1.19e+06 M⁻¹ s⁻¹,B7

# Molecular target: T10, human CD40
# Assay: CHO-CD40 cell RBA: competition with biotinylated human IZ-CD40L for human CD40 on CHO cells, fluorescence (FMAT); 50 µM HSA
row,EC50 [nM],Binder
1,8.6,B9
2,26.8,B10
3,16.6,B11
4,2.7,B12
5,3.3,B4
6,9.1,B13
7,5.7,B14
8,13.1,B15
